From US20120167239A1

Biological target: GAL4:CfEcR-DEF (yeast; Choristoneura fumiferana)
Experiment: cell-based or functional assay

VP16:LmUSP-EF
maximum fold induction of luciferase reporter (two-hybrid switch, stable CHO clone 1A2, non-steroidal ligand): 162 fold
maximum fold induction of luciferase reporter (two-hybrid switch, stable CHO clone 1A2, steroid PonA): 42 fold
